Laboratory results as given in the supplement of paper PMC9170038.

tested on: K4 kissing-loop RNA reporter; experiment: apparent KD of K4 kissing-loop reporter; higher = weaker reporter binding; details: Eterna round: R107; input ligand: theophylline 20 uM
Method: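 RNA-MaP round R107: designed RNA switches with theophylline, tryptophan, arginine or FMN aptamers are transcribed on-chip within common flanks. They are titrated with a labelled K4 kissing-loop RNA reporter in RNA-MaP buffer (100 mM Tris pH 7.5, 80 mM KCl, 4 mM MgCl2), without ligand or with the indicated ligand. Median apparent KD per design.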
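Also: bound reporter read as fluorescence of individual clusters on recovered sequencing chips by microscopy, with normalized cluster intensities fitted with a binding model.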

Sequence | apparent KD of K4 kissing-loop reporter
AGAUGUCCCUGGGAUACCAGUCGGAGUCUCAGAGCUCGGAGUGAUGUUCUGGGAUGUUUCGGCCCUUGGCAGCUCUGGGACUCCC [#2 Exclusion - Theophylline B Attempt #25 (HarryS)] | 708 nM
GCCGUACGCAUGGAUACCAGCAAUUAUGCUCGUAUCCUAGUGAUGUUAGUGGCGAAUAUUUGCCCUUGGCAGCCAUGCGUACGGC | 691 nM
ACUCUUGCGUAUGAUACCAGCUUGUACCGCCACAUAUAUUCUAAGAGUUGAGUGAUGUUUAGCCCUUGGCAGCAUACUUGUGCGU [theeternabot_exclusion_KL_Theo_B_42] | 606 nM
UGACUGGACUGAAGGAGCGCUGAACUCCUAGUGAUGUUAGGAAAACGAGACAAAGUCUCGAAGCAGGUAGGUCGCAGUCUAGUCU | 138 nM
GGUAGCAUGGCGGCCGCCACUAUAAAGAAUCCAAAGGAUUCUAGGUAGUGAUGUUACCAUAGCUAUAGGACCGGGCCAUGCUACC | 121 nM
AGUACGGCAAACUUGCAACAAGCCGUACCACGAGGACCGGUACGGCCGCCACUCGAUAACUUGCAGUGAUGUUGCAAGUAAGAAU [(T)''-(K)'-(T)'-(T1)-(T2)-(K1)-(K2)_Design5] | 226 nM
CCCUCACGAGUGAUGUUCGUAGGGUACAGUCAGGAUAUCAUGCGGUUGAGAAGGGACAGAGAAGGCGGCCACGGGUUGCUUAUCU [Ussoat] | 388 nM
UAACGACUCGGAAGGAGCGCGGUUUUAAAAGACUAAGGCCGAGUGAUGUUCGGAGAAGUCCCGCAGGUAGGUCGCCGGGUUGUGG [Ceororedar] | 199 nM
AAGCAGUCUCUUGUAGUCAUCGAAGAUGAACGAGGACCGGUACGGCCGCCACUCGGAGUGAUGUUCCGAAGACUGCAAAAUAAAA [MatMod 17 - Jieux - Exclusion - Tryptophan A] | 765 nM
CGGCUCACGCAAGGAUAUCGCAGUGAGUACUCUGGAAGAAUAAAGCUAGUGAUGUUAGGUUAGAAGCGAGAAGGUGCGGCCGUAU [theeternabot_sameState_KL_FMN_B_30] | 197 nM
UGGAUAUAGUGAUGUUAUAUAGAGAUGGAUACCAGUUGAGAGAAUAGCCCUUGGCAGCCGAAAGAAGUAUCAUUAGAGAAGAAUG [ExTheophyl.Ak] | 219 nM

same assay, conditions: Eterna round: R107; input ligand: tryptophan 2.4 mM

Sequence | apparent KD of K4 kissing-loop reporter
GGAACGUUGCGGACUAUCGCAUAAAGUCACCGAGGACCGGUACGGCCGCCACUCGCCAGUGAUGUUGGCGUGUUUGCGCGCUGUA [Isteri] | 117 nM
UGAGAGUACCGGAUGGAGAAAUUGUAUGAUACCAGAGCAGAUUACCUCCCUUGGCAGCAUGCAUCCUGCUAGUGAUGUUGGCAAC [theeternabot_sameState_KL_Theo_A_48] | 535 nM
UGAUACCAGACGGCCGCCACUCCUGCAGUCAAAGACUGCUAAGGAAUAUUCGUCCAGUGAUGUUGGAGGACCGGGUCUGGUAUCU [TrypBX 12 #SwitchBubble #Palindromic #StaticStem] | 979 nM
GUGACGCGGACGGCCGCCACUCCGGUGACCGCUCCGUGCCGCCCUGCGCGAGUGAUGUUCGCCAGGAGGACCGGGUCCGACUUUA [Soesente] | 96.3 nM
GGUGCGGGCUCGGCCGCCACUCCCUCCUGCCGUAAGGUGGGAUACCGAGUGAUGUUCGGUUGGAGGAGGACCGGGAGCCCGUGCC [#2 Exclusion - Tryptophan B Attempt #16 (HarryS)] | 125 nM
AGAGUCACAUAAGGAUAUCCCUUGACGGGAACCAAGUGAUGUUUGGUUAGACGACCUCUUAUCACGGGAGAAGGUAUAUUUGUAU [theeternabot_sameState_KL_FMN_B_27] | 612 nM
CGCAAGCAGCCAGUGAUGUUGGCUGCCUUGCGAGGACCGGUACGGCCGCCACUCGAAGGCAGCUACUGGUAAACCGUCUAACGGA [Atere] | 250 nM
AAAAUAAGCCAGUGAUGUUGGUAGCCAGAUACCAGCGACGAAAGUCGCCCUUGGCAGCUGUGGACGUACAAAAUAAGUACGUCCU | 723 nM
UGUACCGAGUCAGGAUAUGGCGUCGAAAGACGAAUCCUAGUGAUGUUAGGGAUCUGCGAAAGCAGUCCAGAAGGGACUUGGUACU [FmnBS 26 #SwitchBubble #StaticStem #DoubleMagnetSystem] | 373 nM
GUGCAGUGAUGUUGCACGAGGAAAGACGAUACCAGCCGUAAAUAAGGCCCUUGGCAGCGUAGGCUAGCAUAAAGUACGCUAGUCC [Enarines] | 88.4 nM
GGCAGUGAUGUUGCCAGUGGCAGAUUGGAAGGAGCGUGGUGAGACACAGGUAGGUCGCUAAUUGAAGUUGCUGUCACUAGAAUGC [whbob_Ex_Arginine_A_2t132] | 231 nM
ACUUGCACAAAGUCGUCAACCGGUGAAUCAAAGGAUAUUAAUUCACUAAGAAGGUUGAGCCGAGUGAUGUUCGACUGUAAGUCCC [theeternabot_exclusion_KL_FMN_A_34] | 348 nM
AAACGUUGGUCGGAUACCAGUUAGACCGAUAAGGUCAAAACUGGAGUGAUGUUCCCAAAUAACCCUUGGCAGCCGACCGACGAAA [MAT - Same State Theophlline B - Mod of Eli - D12] | 213 nM
GUAUCGCUAGGAGGAUAUUUCAAUCCGCCUAUAAUAGGUGGUACGGAGUGAUGUUCCGAUUUACGGAAAGAAGGCCUAGUGAUAC [FMN B 16] | 278 nM
AAACAACGUGACGAUACCAGCUUACUCGGCAAGCCAGUGAUGUUGGUGAAAAGGAGUCAAAGCCCUUGGCAGCGUCGAAGGUCUG [Georbeer] | 325 nM
GGCCGCAAGGCGGGCCGGCCCACUCCGGAAGGAGCGCCCGCAAGGGCAGGUAGGUCGCCGGAGUGAUGUUCCGGUGGCCGGCCCG [#2 Exclusion - Arginine A Attempt #2 (Inspired by Omei)] | 130 nM
GCAGUGAUGUUGCGCGGGUACAGUGGAGUGCGAGGACCGGUACGGCCGCCACUCGUACAGAACUGGCUAAUAUAUGGAUAGGUGA [VII] | 210 nM
UCGGGCGGCUGAAGGAGCGGGCGGGCCCGAGUGAUGUUCGGGUGGGCCGUGAGGCCCGGAGCCCAGGUAGGUCGCGGUUCCGCCC [#2 Same State - Arginine B Attempt #23 (HarryS)] | 175 nM
GGUGCUGGCCAGUGAUGUUGGCGAAUACUGAAGGAUAUGAUAGGCGUCAGAAGGUCAAGAGUAAUAUCUAGAAUGAAUAGUGAUA [theeternabot_sameState_KL_FMN_A_38] | 285 nM
AUUCGCAGUGAUGUUGCGAUUCCGUUGAGGGAGGAUAUUGGUAAUACAAGAAGGCCCGGCUGCGGGUGAUGUUCGCAUUAGGGCC [Exclusion FMN A GF18] | 126 nM
AAUAUAGUGAUGUUAUAUAAGAAGGAGUUACGAGGACCGGUACGGCCGCCACUCGAAACGAGUGAGGAUUUGGGAGAUUGGGUUU [SSTryptA.M] | 389 nM

Sequence | apparent KD of K4 kissing-loop reporter
GGUGUUGUUUGUGCCGUCUUCCUCGUUCCUCGAGGACCGGUACGGCCGCCACUCGAGUGAUGUUUGGGUAGCGAUCCCUGUUAGU [Bdazzled - #10 Exc. Tryptophan A] | 582 nM
GGAUCGCAUGGCGAAAAGCCAUGCGAUCCACGAGGACCGGUACGGCCGCCACUCGCCGGAGUGAUGUUCCGCUACAGAUCUUAAA | 301 nM
AAUGUACAGGGAAGGAGCGUAGUCCAGUGAUGUUGGAAUUAAAUUCCUGUGAUGUUGGUUAUACAGGUAGGUCGCCCUAAAGUGC [KL-XARG-B21] | 93.3 nM
UGUGUGUAGGGAAGGAGCGCCGAGAGAAGAAGAAAAGAGUGAUGUUCAAGACAAUAAAGACGGCAGGUAGGUCGCCCUGUGUGUG [Default title] | 267 nM
GUAGCACUUGGUAGUGAUGUUACCAAGGACAAGGAUAUCAUCUCAAUGAGAAGGUGUCCUUGGUAACAGCUACGGGAAUAUCCCA [Omei KL FMN A Exc D v2] | 246 nM
AGACUACUGAUAGGAUAUAACAUCCUAGUCGUAUACCGAAAGGUAUACGAUAUCCUUCUAGUGAUGUUAGAAGGGUCGGUAGUCA [Omei KL FMN B Exc B v10] | 98.4 nM
UGAUGUUUAGUUCACCCAGUGAUGUUGGAAGGAGCGUGCGAAAGCACAGGUAGGUCGCCAACCUAAAAGUGUCUUGAUUAUCUAA [JR_Nu_ExcArginiA_Sub028] | 289 nM
GAUGCAUAUUCCUGGAGGAAGAUGGUUAAGAAGGAUAUCAAAGCCGUGAGAAGGUCUAAACCUAAUAGUCGAGUGAUGUUCGACC [theeternabot_sameState_KL_FMN_A_35] | 278 nM
AUCUGGUUGGGCGAUACCAGUUUGGCAUAGUGAUGUUAUGCAACGCUCAGUGCAAGGCCAAACCCUUGGCAGCGCACAUCCUUUC [theeternabot_exclusion_KL_Theo_B_3] | 105 nM
GGUGUUGUUUGUGCCGUUUUCCUCGUUCCUCGAGGACCGGUACGGCCGCCACUCGAGUGAUGUUUGGGUAGCGAUCCCUGUUAGU [Bdazzled - #9 Exc. Tryptophan A] | 766 nM
AGAUGUCCCUGGGAUACCAGUCGGAGUCUCAGAGCUCGGAGUGAUGUUCUGGGAUGUUUCGGCCCUUGGCAGCUCUGGGACUCCC [#2 Exclusion - Theophylline B Attempt #25 (HarryS)] | 909 nM
GCCGUACGCAUGGAUACCAGCAAUUAUGCUCGUAUCCUAGUGAUGUUAGUGGCGAAUAUUUGCCCUUGGCAGCCAUGCGUACGGC | 936 nM
ACUCUUGCGUAUGAUACCAGCUUGUACCGCCACAUAUAUUCUAAGAGUUGAGUGAUGUUUAGCCCUUGGCAGCAUACUUGUGCGU [theeternabot_exclusion_KL_Theo_B_42] | 702 nM
UGACUGGACUGAAGGAGCGCUGAACUCCUAGUGAUGUUAGGAAAACGAGACAAAGUCUCGAAGCAGGUAGGUCGCAGUCUAGUCU | 115 nM
GGUAGCAUGGCGGCCGCCACUAUAAAGAAUCCAAAGGAUUCUAGGUAGUGAUGUUACCAUAGCUAUAGGACCGGGCCAUGCUACC | 56.5 nM
AGUACGGCAAACUUGCAACAAGCCGUACCACGAGGACCGGUACGGCCGCCACUCGAUAACUUGCAGUGAUGUUGCAAGUAAGAAU [(T)''-(K)'-(T)'-(T1)-(T2)-(K1)-(K2)_Design5] | 209 nM
CCCUCACGAGUGAUGUUCGUAGGGUACAGUCAGGAUAUCAUGCGGUUGAGAAGGGACAGAGAAGGCGGCCACGGGUUGCUUAUCU [Ussoat] | 308 nM
UAACGACUCGGAAGGAGCGCGGUUUUAAAAGACUAAGGCCGAGUGAUGUUCGGAGAAGUCCCGCAGGUAGGUCGCCGGGUUGUGG [Ceororedar] | 148 nM
AAGCAGUCUCUUGUAGUCAUCGAAGAUGAACGAGGACCGGUACGGCCGCCACUCGGAGUGAUGUUCCGAAGACUGCAAAAUAAAA [MatMod 17 - Jieux - Exclusion - Tryptophan A] | 180 nM
CGGCUCACGCAAGGAUAUCGCAGUGAGUACUCUGGAAGAAUAAAGCUAGUGAUGUUAGGUUAGAAGCGAGAAGGUGCGGCCGUAU [theeternabot_sameState_KL_FMN_B_30] | 137 nM
UGGAUAUAGUGAUGUUAUAUAGAGAUGGAUACCAGUUGAGAGAAUAGCCCUUGGCAGCCGAAAGAAGUAUCAUUAGAGAAGAAUG [ExTheophyl.Ak] | 173 nM
